Reference: patent US20240350588A1 (SUNSHINE LAKE PHARMA, published 2024)
Substitutions are numbered along the chain they refer to.

B1: Fc-GDF15 fusion protein M51 (Fc fusion)
chain: APEAAGGPSVFLFPPKPKDTLMISRTPEVTCVVVDVSQEDPEVQFNWYVDGVEVHNAKTKPREEQFNSTYRVVSVLTVLHQDWLNGKEYKCKVSNKGLPSSIEKTISKAKGQPREPQVYTLPPSQEEMTKNQVSLTCLVKGFYPSDIAVEWESNGQPENNYKTTPPVLDSDGSFFLYSRLTVDKSRWQEGNVFSCSVMHEALHNHYTQNSLSLSLGGGGGSGGGGSAPAPAPAPAPAPAPAPAPAPGGGGSGGGGSDHCPLGPGRCCRLHTVRASLEDLGWADWVLSPREVQVTMCIGACPSQFRAANMHAQIKTSLHRLKPDTVPAPCCVPASYNPMVLIQKTDTGVSLQTYDDLLAKDCHCI
B2: Fc-GDF15 fusion protein M5 (Fc fusion)
chain: B1 chain with N209D
B3: Fc-GDF15 fusion protein M7 (Fc fusion)
chain: B1 chain with N209A
B4: Fc-GDF15 fusion protein M8 (Fc fusion)
chain: B1 chain with E126K, N209K
B5: Fc-GDF15 fusion protein M6 (Fc fusion)
chain: B1 chain with N209Q
B6: Fc-GDF15 fusion protein M39 (Fc fusion)
chain: APEAAGGPSVFLFPPKPKDTLMISRTPEVTCVVVDVSQEDPEVQFNWYVDGVEVHNAKTKPREEQFNSTYRVVSVLTVLHQDWLNGKEYKCKVSNKGLPSSIEKTISKAKGQPREPQVYTLPPSQEEMTKNQVSLTCLVKGFYPSDIAVEWESNGQPENNYKTTPPVLDSDGSFFLYSRLTVDKSRWQEGNVFSCSVMHEALHNHYTQQSLSLSLGGGGGSGGGGSAPAPAPAPAPAPAPAPAPAPGGGGSGGGGSGDHCPLGPGRCCRLHTVRASLEDLGWADWVLSPREVQVTMCIGACPSQFRAANMHAQIKTSLHRLKPDTVPAPCCVPASYNPMVLIQKTDTGVSLQTYDDLLAKDCHCI
B7: Fc-GDF15 fusion protein M3 (Fc fusion)
chain: B6 chain with Q209E
B8: Fc-GDF15 fusion protein M50 (Fc fusion)
chain: B6 chain with E126Q
B9: Fc-GDF15 fusion protein M37 (Fc fusion)
chain: APEAAGGPSVFLFPPKPKDTLMISRTPEVTCVVVDVSQEDPEVQFNWYVDGVEVHNAKTKPREEQFNSTYRVVSVLTVLHQDWLNGKEYKCKVSNKGLPSSIEKTISKAKGQPREPQVYTLPPSQEEMTKNQVSLTCLVKGFYPSDIAVEWESNGQPENNYKTTPPVLDSDGSFFLYSRLTVDKSRWQEGNVFSCSVMHEALHNHYTQESLSLSLGGGGGSGGGGSAPAPAPAPAPAPAPAPAPAPGGGGSGGGGSCRLHTVRASLEDLGWADWVLSPREVQVTMCIGACPSQFRAANMHAQIKTSLHRLKPDTVPAPCCVPASYNPMVLIQKTDTGVSLQTYDDLLAKDCHCI

Target: T1, human GFRAL (UniProtKB-Q6UXVO) (human, UniProt Q6UXV0 19-394)
T1 sequence (looked up): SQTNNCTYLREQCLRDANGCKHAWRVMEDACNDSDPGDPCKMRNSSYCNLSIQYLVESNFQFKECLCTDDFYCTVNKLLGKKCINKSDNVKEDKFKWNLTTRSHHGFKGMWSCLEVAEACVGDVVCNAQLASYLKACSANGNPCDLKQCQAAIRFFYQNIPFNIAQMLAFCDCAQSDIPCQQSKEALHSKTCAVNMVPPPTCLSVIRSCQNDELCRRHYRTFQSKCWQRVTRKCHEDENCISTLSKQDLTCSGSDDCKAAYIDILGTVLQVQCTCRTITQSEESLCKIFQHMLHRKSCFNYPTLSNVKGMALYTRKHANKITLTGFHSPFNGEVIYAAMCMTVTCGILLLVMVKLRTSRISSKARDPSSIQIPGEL
Assay: cell-based or functional assay

| Binder | Relative activity ratio (native GDF15 EC50: Fc-GDF15 construct EC50), ERK1/2 phosphorylation HTRF in HEK293T cells expressing human GFRAL and RET [ratio] |
| --- | --- |
| B1 | 3.16 |
| B2 | 2.47 |
| B3 | 3.16 |
| B4 | 1.69 |
| B5 | 2.71 |
| B6 | 2.62 |
| B7 | 4.53 |
| B8 | 1.5 |
| B9 | 3.17 |
